Test results as given in patent US20200010570A1.

Molecular target: C1q (Fitzgerald, Cat. No. 32R-AC049) (UniProt P02745)
Assay: ForteBio, biotinylated antibody on SA chip, C1q from 200 nM

C1q (Fitzgerald, Cat. No. 32R-AC049), sequence (P02745 23-245 limits assumed, chain 1 of 3): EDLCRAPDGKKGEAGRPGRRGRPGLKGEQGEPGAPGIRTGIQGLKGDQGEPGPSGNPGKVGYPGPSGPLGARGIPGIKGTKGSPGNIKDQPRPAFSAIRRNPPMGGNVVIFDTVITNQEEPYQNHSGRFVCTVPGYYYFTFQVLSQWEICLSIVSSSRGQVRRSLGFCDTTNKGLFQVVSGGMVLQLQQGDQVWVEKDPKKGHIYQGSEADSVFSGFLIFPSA
C1q (Fitzgerald, Cat. No. 32R-AC049), sequence (P02746 28-253 limits assumed, chain 2 of 3, further chain): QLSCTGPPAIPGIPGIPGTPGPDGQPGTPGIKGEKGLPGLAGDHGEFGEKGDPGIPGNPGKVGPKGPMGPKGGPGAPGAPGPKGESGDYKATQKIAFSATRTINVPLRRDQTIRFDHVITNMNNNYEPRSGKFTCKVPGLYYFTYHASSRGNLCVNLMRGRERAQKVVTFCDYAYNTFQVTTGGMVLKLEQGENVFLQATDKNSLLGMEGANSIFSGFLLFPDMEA
C1q (Fitzgerald, Cat. No. 32R-AC049), sequence (P02747 29-245 limits assumed, chain 3 of 3, further chain): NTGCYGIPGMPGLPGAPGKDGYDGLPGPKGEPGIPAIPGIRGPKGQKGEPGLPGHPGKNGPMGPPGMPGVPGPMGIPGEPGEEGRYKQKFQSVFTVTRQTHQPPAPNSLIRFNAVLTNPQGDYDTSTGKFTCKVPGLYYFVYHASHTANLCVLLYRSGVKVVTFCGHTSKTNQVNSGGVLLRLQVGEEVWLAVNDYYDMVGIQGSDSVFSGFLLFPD

**Q.** How did the Kd turn out when “Tecentriq® (Atezolizumab, purchased from Roche) (antibody)” was run?
**A.** 1.3 nM

**Q.** And the koff?
**A.** 0.00176 s⁻¹

**Q.** What about the kon of the same substance?
**A.** 1.36e+06 M⁻¹ s⁻¹
